Reference: article PMC8769072, “Proteome‐scale mapping of binding sites in the unstructured regions of the human proteome” (Molecular Systems Biology, 2022)
Values belong to the binder of their own block, whether it stands above or below them. Where no end group is shown, it is not given here. [ ]: non-standard residue; d: D form. The star is where a group is joined. FITC = O=C1OC2(c3ccc(O)cc3Oc3cc(O)ccc32)c2ccc(NC(=S)*)cc21; pS = N[C@@H](COP(=O)(O)O)C(=O)O

Legend:
[1] = biological target: KPNA4 ARM, MBP‐tagged domain, for affinity measurements (human); test: fluorescence polarisation; competition on MBP-tagged KPNA4 ARM: unlabelled peptide in serial dilution displaces FITC-Myc 320-328 (probe for the major pocket) or FITC-NCOR2 1307-1322 (probe for the minor pocket); 50 mM KPO4 pH 7.5; triplicates
[2] = biological target: KEAP1 Kelch domain, MBP-tagged (human) (UniProt Q14145); test: fluorescence polarisation; competition: unlabelled peptide in serial dilution against FITC-labelled probe peptide and protein (master mix with protein at four times the KD), 50 mM KPO4 pH 7.5; sigmoidal dose-response fit, KI
[3] = biological target: KEAP1 Kelch (kelch-like ECH-associated protein 1, Kelch domain) (human) (UniProt Q14145); test: fluorescence polarisation; competition: unlabelled peptide in serial dilution against the protein domain (master mix at four times the KD) with its FITC-labelled probe peptide; 50 mM KPO4 or NaPO4 pH 7.5; Ki calculated from IC50
[4] = biological target: KPNA4 ARM (importin subunit alpha-3, armadillo repeat domain) (human) (UniProt O00629); test: fluorescence polarisation; direct saturation binding: protein in serial dilution, FITC-labelled probe peptide fixed (master mix 10 nM probe, 2 mM DTT); 50 mM KPO4 or NaPO4 pH 7.5; quadratic fit
[5] = biological target: KPNB1 HEAT (importin subunit beta-1, HEAT repeat) (human) (UniProt Q14974); test: as above
[6] = biological target: MDM2 SWIB, cleaved from the His‐GST tag, for affinity measurements (human); test: fluorescence polarisation; competition: unlabelled peptide in serial dilution displaces a FITC-labelled probe peptide from the bait domain (master mix with protein at four times the KD of the probe, 10 nM probe, 2 mM DTT); 50 mM KPO4 or NaPO4 pH 7.5; triplicates; probe for KEAP1 Kelch: FITC-NFE2L1 228-243, other probes in Dataset EV6
[7] = biological target: TLN1 PTB (talin-1, phosphotyrosine binding-like domain) (human) (UniProt Q9Y490); test: fluorescence polarisation; direct saturation binding: protein in serial dilution, FITC-labelled probe peptide fixed (master mix 10 nM probe, 2 mM DTT); 50 mM KPO4 or NaPO4 pH 7.5; quadratic fit
[8] = biological target: SFN 14-3-3 (14-3-3 protein sigma) (human) (UniProt P31947); test: as above
[9] = biological target: SFN 14-3-3 (14-3-3 protein sigma) (human) (UniProt P31947); test: fluorescence polarisation; competition: unlabelled peptide in serial dilution against the protein domain (master mix at four times the KD) with its FITC-labelled probe peptide; 50 mM KPO4 or NaPO4 pH 7.5; Ki calculated from IC50

fold loss of affinity against the wild-type peptide [1]: 10 fold
Binder: KCRRQRQDQTLELVGL [NKX2‐5_(192–207) K194R mutant peptide, synthetic, P52952 192-207]

Ki [2]: 162 µM
IC50 [3]: 490 µM
Ki [3]: 162 µM
Binder: Ac-YMQHLQEQQQQQMHLQ-NH2 [TREF1 332-347 peptide]

Ki [2]: 1470 µM
IC50 [3]: 4430 µM
Ki [3]: 1470 µM
Binder: Ac-PPLPPPPLPPAPSLPY-NH2 [ATF5 128-143 peptide]

Kd [4]: 0.23 µM
Binder: {FITC}-PKRTYDMMEGRVGRAI [FITC-NCOR2 1307-1322 probe peptide]

Kd [5]: 106 µM
Binder: {FITC}-VATFVFGQSS-NH2 [FITC-NUP153 1223-1232 probe peptide]

Ki [6]: 0.17 µM
Binder: THFAELWGHLDHTMFF [RNF115_(69–84) peptide, synthetic]

Kd [7]: 0.15 µM
Binder: {FITC}-FPTDERSWVYSPLHYS-NH2 [FITC-PIP5K1C 640-655 probe peptide]

Kd [4]: 0.03 µM
Binder: {FITC}-PAAKRVKLD [FITC-Myc 320-328 probe peptide]

Kd [8]: 524 µM
Binder: {FITC}-QRST[pS]TPNVH-NH2 [FITC-RAF phosphopeptide probe]

IC50 [9]: 1970 µM
Binder: Ac-NEPTTPSWLADIPPWVP-NH2 [MAP1A 1831-1847 peptide]
